Measured values: IntAct's records for PubMed 20798051

Biological target: fgfr4_human FGFR4 (UniProt P22455)
Chain of UniProt P22455 (P22455 whole entry, looked up): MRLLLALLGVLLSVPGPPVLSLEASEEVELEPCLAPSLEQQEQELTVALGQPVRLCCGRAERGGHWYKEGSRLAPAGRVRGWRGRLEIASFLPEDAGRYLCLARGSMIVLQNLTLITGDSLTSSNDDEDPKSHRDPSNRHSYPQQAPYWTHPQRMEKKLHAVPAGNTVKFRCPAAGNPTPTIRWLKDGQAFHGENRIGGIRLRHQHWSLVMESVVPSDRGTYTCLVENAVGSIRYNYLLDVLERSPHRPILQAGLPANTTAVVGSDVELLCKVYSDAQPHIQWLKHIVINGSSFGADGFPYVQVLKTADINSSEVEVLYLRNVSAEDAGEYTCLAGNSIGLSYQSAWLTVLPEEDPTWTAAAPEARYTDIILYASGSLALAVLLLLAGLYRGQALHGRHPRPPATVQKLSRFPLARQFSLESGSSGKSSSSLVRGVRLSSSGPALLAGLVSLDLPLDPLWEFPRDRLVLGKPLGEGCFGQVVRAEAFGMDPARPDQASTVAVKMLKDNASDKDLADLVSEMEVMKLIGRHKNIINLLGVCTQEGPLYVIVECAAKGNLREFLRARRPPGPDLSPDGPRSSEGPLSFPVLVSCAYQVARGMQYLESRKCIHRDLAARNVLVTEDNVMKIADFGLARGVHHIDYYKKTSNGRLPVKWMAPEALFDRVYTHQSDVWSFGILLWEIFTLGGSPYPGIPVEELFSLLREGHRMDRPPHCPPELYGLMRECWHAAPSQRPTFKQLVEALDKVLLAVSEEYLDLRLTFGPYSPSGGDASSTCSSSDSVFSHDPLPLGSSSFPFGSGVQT

| effect of a mutation on the interaction | Substance |
| --- | --- |
| decreasing interaction | Matrix metalloproteinase-14 (Homo sapiens) (from UniProt P50281) Y573F |
| decreasing interaction | Matrix metalloproteinase-14 (Homo sapiens) (from UniProt P50281) E240A |
